Experimental data from paper PMC11358422.

Experiments:
Assay in all cases: ELISA
hemoglobin = hemoglobin (UniProt P69905+P68871); settings: 5' biotin, ELISA: suspension coated in 100 mM NaHCO3 pH 9.6, 5% CSA block, aptamer in Base Pair Aptamer Folding Buffer, washes 0.02% Tween-20 in PBS, microscopy: aptamer …
[1] = target: gelatin (collagen) (bovine skin) (UniProt P02453+P02465); settings: gelatin suspension; 5' biotin; ELISA: suspension coated in 100 mM NaHCO3 pH 9.6, 5% CSA block, aptamer in Base Pair Aptamer Folding Buffer, washes 0.02% Tween-20 in PBS; microscopy: aptamer …
[2] = target: T1, beta-casein / beta-casomorphin-7 (UniProt P02666); settings: raw milk; 5' biotin; ELISA: suspension coated in 100 mM NaHCO3 pH 9.6, 5% CSA block, aptamer in Base Pair Aptamer Folding Buffer, washes 0.02% Tween-20 in PBS; microscopy: aptamer …
T1 sequence: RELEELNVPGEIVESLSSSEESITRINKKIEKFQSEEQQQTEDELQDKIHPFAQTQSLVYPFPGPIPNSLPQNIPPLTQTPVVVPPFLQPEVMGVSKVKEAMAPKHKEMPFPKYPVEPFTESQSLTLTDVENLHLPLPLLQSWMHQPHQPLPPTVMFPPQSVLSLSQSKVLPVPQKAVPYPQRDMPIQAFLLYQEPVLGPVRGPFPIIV

gluten (gliadin) (wheat) = settings: wheat flour suspension; 5' biotin; ELISA: suspension coated in 100 mM NaHCO3 pH 9.6, 5% CSA block, aptamer in Base Pair Aptamer Folding Buffer, washes 0.02% Tween-20 in PBS; microscopy: aptamer …
beta-lactoglobulin = target: T2, beta-lactoglobulin (UniProt P02754); settings: raw milk; 5' biotin; ELISA: suspension coated in 100 mM NaHCO3 pH 9.6, 5% CSA block, aptamer in Base Pair Aptamer Folding Buffer, washes 0.02% Tween-20 in PBS; microscopy: aptamer …
T2 sequence: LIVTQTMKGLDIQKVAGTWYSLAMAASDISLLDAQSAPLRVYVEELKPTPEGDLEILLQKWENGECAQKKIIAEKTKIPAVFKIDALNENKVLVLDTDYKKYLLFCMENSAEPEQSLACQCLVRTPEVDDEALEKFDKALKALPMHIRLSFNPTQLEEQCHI

[3] = test system: parvalbumin (trout ('fish traut')); settings: fish trout suspension; 5' biotin; ELISA: suspension coated in 100 mM NaHCO3 pH 9.6, 5% CSA block, aptamer in Base Pair Aptamer Folding Buffer, washes 0.02% Tween-20 in PBS; microscopy: aptamer …

Sequence of hemoglobin (P69905 2-142, chain 1 of 2): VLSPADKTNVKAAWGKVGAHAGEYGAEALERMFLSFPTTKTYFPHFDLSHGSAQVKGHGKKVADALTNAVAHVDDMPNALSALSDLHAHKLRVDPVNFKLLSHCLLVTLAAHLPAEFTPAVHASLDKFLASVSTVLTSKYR
Sequence of hemoglobin (P68871 2-147, chain 2 of 2): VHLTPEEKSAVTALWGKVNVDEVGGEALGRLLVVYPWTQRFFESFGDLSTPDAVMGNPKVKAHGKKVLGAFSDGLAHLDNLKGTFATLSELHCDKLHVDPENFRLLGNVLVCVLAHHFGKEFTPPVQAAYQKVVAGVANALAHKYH
Sequence of gelatin (collagen) (bovine skin) (P02453 whole entry, chain 1 of 2): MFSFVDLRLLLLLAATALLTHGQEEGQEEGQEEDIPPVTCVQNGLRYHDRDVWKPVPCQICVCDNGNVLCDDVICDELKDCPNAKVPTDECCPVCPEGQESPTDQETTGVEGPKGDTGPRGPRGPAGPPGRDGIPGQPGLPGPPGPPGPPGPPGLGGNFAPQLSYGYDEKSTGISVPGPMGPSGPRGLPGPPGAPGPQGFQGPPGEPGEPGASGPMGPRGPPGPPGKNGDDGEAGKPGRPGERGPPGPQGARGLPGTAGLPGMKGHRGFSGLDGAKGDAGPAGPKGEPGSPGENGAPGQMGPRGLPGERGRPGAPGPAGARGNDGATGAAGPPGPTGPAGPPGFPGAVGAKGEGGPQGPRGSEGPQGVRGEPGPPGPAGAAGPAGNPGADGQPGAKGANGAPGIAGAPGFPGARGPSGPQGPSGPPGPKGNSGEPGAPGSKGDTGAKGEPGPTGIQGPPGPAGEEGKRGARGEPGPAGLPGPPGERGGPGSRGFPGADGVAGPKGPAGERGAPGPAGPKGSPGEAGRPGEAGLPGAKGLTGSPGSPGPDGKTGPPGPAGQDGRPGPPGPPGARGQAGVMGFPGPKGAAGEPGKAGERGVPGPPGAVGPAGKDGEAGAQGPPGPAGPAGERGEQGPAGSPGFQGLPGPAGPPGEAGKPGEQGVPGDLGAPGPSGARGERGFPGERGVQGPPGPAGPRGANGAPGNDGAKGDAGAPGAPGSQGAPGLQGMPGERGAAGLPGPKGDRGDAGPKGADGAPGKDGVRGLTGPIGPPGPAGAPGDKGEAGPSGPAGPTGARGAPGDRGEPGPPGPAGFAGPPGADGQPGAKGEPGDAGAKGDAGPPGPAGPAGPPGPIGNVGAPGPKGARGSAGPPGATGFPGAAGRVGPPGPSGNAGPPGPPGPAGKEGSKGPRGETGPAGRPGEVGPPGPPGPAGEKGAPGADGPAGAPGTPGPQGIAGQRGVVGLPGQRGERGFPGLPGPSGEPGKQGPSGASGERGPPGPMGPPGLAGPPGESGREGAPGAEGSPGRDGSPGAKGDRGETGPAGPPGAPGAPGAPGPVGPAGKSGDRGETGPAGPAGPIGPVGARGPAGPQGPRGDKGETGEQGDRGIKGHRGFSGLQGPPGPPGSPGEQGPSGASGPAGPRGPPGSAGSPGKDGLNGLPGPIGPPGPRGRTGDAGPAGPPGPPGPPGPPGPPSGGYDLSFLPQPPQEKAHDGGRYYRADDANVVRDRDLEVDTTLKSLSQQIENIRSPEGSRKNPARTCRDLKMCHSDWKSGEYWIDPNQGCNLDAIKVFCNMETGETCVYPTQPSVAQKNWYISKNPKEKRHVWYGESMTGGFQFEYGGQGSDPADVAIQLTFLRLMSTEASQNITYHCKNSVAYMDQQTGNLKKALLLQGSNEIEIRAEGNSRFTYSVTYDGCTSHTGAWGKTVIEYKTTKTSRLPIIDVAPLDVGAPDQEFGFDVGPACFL
Sequence of gelatin (collagen) (bovine skin) (P02465 whole entry, chain 2 of 2): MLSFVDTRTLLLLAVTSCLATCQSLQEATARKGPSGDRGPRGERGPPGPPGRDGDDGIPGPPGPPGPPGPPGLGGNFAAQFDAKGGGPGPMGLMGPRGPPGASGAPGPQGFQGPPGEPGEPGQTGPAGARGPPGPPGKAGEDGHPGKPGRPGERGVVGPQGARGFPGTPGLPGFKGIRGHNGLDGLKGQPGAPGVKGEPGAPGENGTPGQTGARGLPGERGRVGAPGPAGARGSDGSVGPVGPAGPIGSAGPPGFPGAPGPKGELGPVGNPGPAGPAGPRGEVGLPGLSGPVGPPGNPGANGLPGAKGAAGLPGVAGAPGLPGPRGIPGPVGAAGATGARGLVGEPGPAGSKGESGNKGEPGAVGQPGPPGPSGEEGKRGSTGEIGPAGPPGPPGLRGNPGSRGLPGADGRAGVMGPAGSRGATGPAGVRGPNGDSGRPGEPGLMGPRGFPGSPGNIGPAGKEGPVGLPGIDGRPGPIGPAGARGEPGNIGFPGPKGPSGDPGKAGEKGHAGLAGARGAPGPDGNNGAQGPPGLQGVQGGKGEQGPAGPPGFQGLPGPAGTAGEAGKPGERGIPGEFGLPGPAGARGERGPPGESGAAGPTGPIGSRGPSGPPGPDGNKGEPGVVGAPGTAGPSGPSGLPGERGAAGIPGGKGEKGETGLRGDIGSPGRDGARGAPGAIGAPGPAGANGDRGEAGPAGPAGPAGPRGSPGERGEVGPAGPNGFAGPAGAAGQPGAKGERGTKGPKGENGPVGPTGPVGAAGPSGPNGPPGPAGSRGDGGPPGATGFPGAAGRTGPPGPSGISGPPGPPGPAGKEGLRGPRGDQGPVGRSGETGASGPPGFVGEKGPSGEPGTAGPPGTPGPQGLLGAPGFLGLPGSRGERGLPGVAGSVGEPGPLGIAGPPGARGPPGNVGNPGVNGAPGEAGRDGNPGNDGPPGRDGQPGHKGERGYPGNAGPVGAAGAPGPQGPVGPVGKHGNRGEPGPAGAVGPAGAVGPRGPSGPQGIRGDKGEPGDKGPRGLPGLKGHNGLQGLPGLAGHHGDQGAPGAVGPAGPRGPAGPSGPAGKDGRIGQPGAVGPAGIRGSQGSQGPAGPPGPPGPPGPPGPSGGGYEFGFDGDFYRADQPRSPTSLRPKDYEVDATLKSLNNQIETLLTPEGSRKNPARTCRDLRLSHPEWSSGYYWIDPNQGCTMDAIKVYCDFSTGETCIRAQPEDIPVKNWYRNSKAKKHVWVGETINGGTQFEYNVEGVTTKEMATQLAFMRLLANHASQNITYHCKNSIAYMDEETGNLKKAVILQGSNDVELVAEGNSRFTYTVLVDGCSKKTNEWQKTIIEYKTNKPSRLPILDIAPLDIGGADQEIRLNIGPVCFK

Q: With “ACGCACACCAGAGACAAGTAGCCCCCCAAACGCG [G15 T1]” as the sequence, how does the binding signal (hemoglobin; signal at MilliQ control level) read?
A: 0.015 OD405

Q: “ATCCGTCACACCTGCTCTAGACGAATATTGTATCCTCATTAGATCAAAAACGGGTGGTGTTGGCTCCCGTAT [CTx 2R (CTx 2R-2h)]” was tested. Which binding signal [1] did it give?
A: 0.615 OD405

Q: With “ATCCGTCACACCTGCTCTATACACATTGTGTTTACTCCCAGTTTTTTAGACTTATGGTGTTGGCTCCCGTAT [seqU5]” as the sequence, how does the binding signal [2] read?
A: 0.51 OD405

Q: For “CCAGTCTCCCGTTTACCGCGCCTACACATGTCTGAATGCC [Gli 4]”, which binding signal (gluten (gliadin) (wheat)) is on record?
A: 0.519 OD405

Q: With “CGACGATCGGACCGCAGTACCCACCCACCAGCCCCAACATCATGCCCATCCGTGTGTG [BLG14]” as the sequence, how does the binding signal (beta-lactoglobulin) read?
A: 0.394 OD405

Q: How did the binding signal (gluten (gliadin) (wheat)) turn out when “CTAGGCGAAATATAGCTACAACTGTCTGAAGGCACCCAAT [Gli 1]” was run?
A: 0.577 OD405

Q: “GGCAGGAAGACAAACACCAGGTGAGGGAGACGACGCGAGTGTTAGATGGTAGCTGTTGGTCTGTGGTGCTGT [Hb]” was tested. Which binding signal (hemoglobin) did it give?
A: 0.388 OD405

Q: Which binding signal (hemoglobin) does the source give for “TTAGCGAGCTGCACACACAATGGACTCGTCATACCGTGCTGTTT [HA]” here?
A: 0.471 OD405

Q: For “TTTTTGGTTGACGGCAGTCGGCGGTATGCGCATATCGTGTTGGTA [D1]”, which binding signal [1] is on record?
A: 0.4 OD405

Q: Which binding signal [3] does the source give for “TTTTTTTTGCCAAAGGAGGCGAGAGATAAAAGATTGCGAATCCATTCG [Par1]” here?
A: 0.412 OD405
